Reference: paper PMC5039624 (Scientific Reports, 2016)

B1: unnamed (parent)
chain 1: SECGKFMWKCKNSNDCCKDLVCSSRWKWCVLASPF
chain 2: RGLSDLGGRVRNIGDVMEHPLVELGVSYAALLSVIVVVVEYTMQLSGEYLVRLYLVDLILVIILWADYAYRAYKSGDPAGYVKKTLYEIPALVPAGLLALIEGHLAGLGLFRLVRLLRFLRILLIISRGSKFLSAIADAADK

Variants of: B1
Test: pull-down
Design: reference not given here
Details: with partner chain of the complex shown; His6-tagged VSDK micelles immobilized on nickel-NTA beads; read off a plot

Row | Variant | screen value [%]
1 | chain 2 RGLSDLGGRVRNIGDVMEHPLVELGVSYAALLSVIVVVVEYTMQLSGEYLVRLYLVDLILVIILWADYAYRAYKSGDPAGYVKKTLYEIPALVPAGLLALIEGHLAGLGLFRLVALLRFLRILLIISRGSKFLSAIADAADK | 7
2 | chain 2 RGLSDLGGRVRNIGDVMEHPLVELGVSYAALLSVIVVVVEYTMQLAGEYLVRLYLVDLILVIILWADYAYRAYKSGDPAGYVKKTLYEIPALVPAGLLALIEGHLAGLGLFRLVRLLRFLRILLIISRGSKFLSAIADAADK | 11
3 | chain 2 RGLSDLGGRVRNIGDVMEHPLVELGVSYAALLSVIVVVVEYAMQLSGEYLVRLYLVDLILVIILWADYAYRAYKSGDPAGYVKKTLYEIPALVPAGLLALIEGHLAGLGLFRLVRLLRFLRILLIISRGSKFLSAIADAADK | 6
4 | chain 2 RGLSDLGGRVRNIGDVMEHPLVELGVSYAALLSVIVVVVEYTMQLSGEYLVRLYLVDLILVIILAADYAYRAYKSGDPAGYVKKTLYEIPALVPAGLLALIEGHLAGLGLFRLVRLLRFLRILLIISRGSKFLSAIADAADK | -7
5 | chain 2 RGLSDLGGRVRNIGDVMEHPLVELGVSYAALLSVIVVVVEATMQLSGEYLVRLYLVDLILVIILWADYAYRAYKSGDPAGYVKKTLYEIPALVPAGLLALIEGHLAGLGLFRLVRLLRFLRILLIISRGSKFLSAIADAADK | 8
6 | chain 2 RGLSDLGGRVRNIGDVMEHPLVELGVSYAALLSVIVVVVEAAMQLSGEYLVRLYLVDLILVIILWADYAYRAYKSGDPAGYVKKTLYEIPALVPAGLLALIEGHLAGLGLFRLVRLLRFLRILLIISRGSKFLSAIADAADK | 19
7 | chain 2 RGLSDLGGRVRNIGDVMEHPLVELGVSYAALLSVIVVVVEAAMALSGEYLVRLYLVDLILVIILWADYAYRAYKSGDPAGYVKKTLYEIPALVPAGLLALIEGHLAGLGLFRLVRLLRFLRILLIISRGSKFLSAIADAADK | 51
